For data set [1], the target named is FadR_ec (Escherichia coli, UniProt P0A8V6 1-239). The experiment in a line: EMSA.
Data set [2] concerns the target FadR_vc (Vibrio cholerae, UniProt Q9KQU8 1-279). The experiment in a line: EMSA.

Sequence of FadR_ec (P0A8V6 whole entry): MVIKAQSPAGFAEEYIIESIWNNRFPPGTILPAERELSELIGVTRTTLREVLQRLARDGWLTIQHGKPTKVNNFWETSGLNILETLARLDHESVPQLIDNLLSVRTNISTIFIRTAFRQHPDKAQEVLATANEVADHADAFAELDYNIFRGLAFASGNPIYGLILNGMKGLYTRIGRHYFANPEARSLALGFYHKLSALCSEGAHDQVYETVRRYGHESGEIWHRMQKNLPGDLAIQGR
Sequence of FadR_vc (Q9KQU8 whole entry): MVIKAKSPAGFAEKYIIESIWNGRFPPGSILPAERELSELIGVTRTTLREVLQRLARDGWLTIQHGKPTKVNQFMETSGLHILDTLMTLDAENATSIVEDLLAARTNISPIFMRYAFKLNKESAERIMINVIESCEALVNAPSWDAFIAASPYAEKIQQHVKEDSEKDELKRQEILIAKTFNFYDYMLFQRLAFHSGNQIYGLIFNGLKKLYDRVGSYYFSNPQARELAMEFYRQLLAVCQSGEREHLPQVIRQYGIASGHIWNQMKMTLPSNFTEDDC

B1: plsB_vc FadR site probe (39 bp) (dsDNA)
DNA 1: TTAAATTAAAAGGTTTGACCAGTTTCTGGTATTCTTGGC
DNA 2: GCCAAGAATACCAGAAACTGGTCAAACCTTTTAATTTAA
In the case of B1, the binding result in data set [1] and in data set [2] was “binds” throughout.

For the origin of these results see paper PMC3204382.
